Assay results taken from article PMC8998557, “A Novel Family of Winged-Helix Single-Stranded DNA-Binding Proteins from Archaea”.

Columns and labels:
Sul7s [1] = target: T1, Sul7s (Sulfolobus islandicus Rey15A, UniProt F0NBY5 1-59); experiment: BLI; BLI: 50 mM Tris-Cl pH 7.5, 100 mM NaCl, 1 mM EDTA, 0.02% Tween-20, 30 C; NMR: 20 mM potassium phosphate pH 7.0, 30 mM NaCl, 0.02% NaN3, 298 K; conditions: protein: recombinant, tags: untagged
T1 sequence: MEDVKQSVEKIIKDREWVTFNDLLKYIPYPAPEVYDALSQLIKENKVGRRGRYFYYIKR

Sul7s [2] = target: T1, Sul7s; experiment: NMR; 0.7 mM 15N/13C protein, HSQC titration; BLI: 50 mM Tris-Cl pH 7.5, 100 mM NaCl, 1 mM EDTA, 0.02% Tween-20, 30 C; NMR: 20 mM potassium phosphate pH 7.0, 30 mM NaCl, 0.02% NaN3, 298 K; conditions: protein: recombinant; tags: untagged
Sul7s R59A = target: T2, Sul7s R59A (Sulfolobus islandicus Rey15A, UniProt F0NBY5 1-59, R59A); experiment: BLI; barely detected up to 80 uM protein; BLI: 50 mM Tris-Cl pH 7.5, 100 mM NaCl, 1 mM EDTA, 0.02% Tween-20, 30 C; NMR: 20 mM potassium phosphate pH 7.0, 30 mM NaCl, 0.02% NaN3, 298 K; conditions: protein: recombinant; tags: untagged; label: 5'-biotin
T2 sequence: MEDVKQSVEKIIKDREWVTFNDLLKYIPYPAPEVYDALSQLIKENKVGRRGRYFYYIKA

Sul7s R52A = target: T3, Sul7s R52A (Sulfolobus islandicus Rey15A, UniProt F0NBY5 1-59, R52A); experiment: as above; conditions: protein: recombinant; tags: untagged; label: 5'-biotin
T3 sequence: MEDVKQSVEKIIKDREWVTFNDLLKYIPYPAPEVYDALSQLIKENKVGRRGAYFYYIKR

Sul7s R49A = target: T4, Sul7s R49A (Sulfolobus islandicus Rey15A, UniProt F0NBY5 1-59, R49A); experiment: as above; conditions: protein: recombinant; tags: untagged; label: 5'-biotin
T4 sequence: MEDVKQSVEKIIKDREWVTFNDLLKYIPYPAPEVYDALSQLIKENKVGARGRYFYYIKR

Sul7s D36A = target: T5, Sul7s D36A (Sulfolobus islandicus Rey15A, UniProt F0NBY5 1-59, D36A); experiment: BLI; text calls decrease marginal, in conflict with table value; BLI: 50 mM Tris-Cl pH 7.5, 100 mM NaCl, 1 mM EDTA, 0.02% Tween-20, 30 C; NMR: 20 mM potassium phosphate pH 7.0, 30 mM NaCl, 0.02% NaN3, 298 K; conditions: protein: recombinant; tags: untagged; label: 5'-biotin
T5 sequence: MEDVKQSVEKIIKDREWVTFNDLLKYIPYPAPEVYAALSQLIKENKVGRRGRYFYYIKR

Sul7s D3A = target: T6, Sul7s D3A (Sulfolobus islandicus Rey15A, UniProt F0NBY5 1-59, D3A); experiment: BLI; BLI: 50 mM Tris-Cl pH 7.5, 100 mM NaCl, 1 mM EDTA, 0.02% Tween-20, 30 C; NMR: 20 mM potassium phosphate pH 7.0, 30 mM NaCl, 0.02% NaN3, 298 K; conditions: protein: recombinant; tags: untagged; label: 5'-biotin
T6 sequence: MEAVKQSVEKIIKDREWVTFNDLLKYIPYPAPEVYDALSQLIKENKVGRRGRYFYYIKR

Sul7s T19G = target: T7, Sul7s T19G (Sulfolobus islandicus Rey15A, UniProt F0NBY5 1-59, T19G); experiment: as above; conditions: protein: recombinant; tags: untagged; label: 5'-biotin
T7 sequence: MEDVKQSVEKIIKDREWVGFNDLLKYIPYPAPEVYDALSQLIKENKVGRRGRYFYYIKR

Sul7s K13A = target: T8, Sul7s K13A (Sulfolobus islandicus Rey15A, UniProt F0NBY5 1-59, K13A); experiment: as above; conditions: protein: recombinant; tags: untagged; label: 5'-biotin
T8 sequence: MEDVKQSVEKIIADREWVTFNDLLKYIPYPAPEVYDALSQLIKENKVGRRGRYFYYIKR

Sul7s R15A = target: T9, Sul7s R15A (Sulfolobus islandicus Rey15A, UniProt F0NBY5 1-59, R15A); experiment: as above; conditions: protein: recombinant; tags: untagged; label: 5'-biotin
T9 sequence: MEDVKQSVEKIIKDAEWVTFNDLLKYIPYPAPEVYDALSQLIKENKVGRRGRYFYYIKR

Sul7s K43A = target: T10, Sul7s K43A (Sulfolobus islandicus Rey15A, UniProt F0NBY5 1-59, K43A); experiment: as above; conditions: protein: recombinant; tags: untagged; label: 5'-biotin
T10 sequence: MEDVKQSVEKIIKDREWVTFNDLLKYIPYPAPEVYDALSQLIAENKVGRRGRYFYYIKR

Sul7s K58A = target: T11, Sul7s K58A (Sulfolobus islandicus Rey15A, UniProt F0NBY5 1-59, K58A); experiment: as above; conditions: protein: recombinant; tags: untagged; label: 5'-biotin
T11 sequence: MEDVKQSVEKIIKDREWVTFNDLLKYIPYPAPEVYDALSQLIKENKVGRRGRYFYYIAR

Sul7s N21A = target: T12, Sul7s N21A (Sulfolobus islandicus Rey15A, UniProt F0NBY5 1-59, N21A); experiment: as above; conditions: protein: recombinant; tags: untagged; label: 5'-biotin
T12 sequence: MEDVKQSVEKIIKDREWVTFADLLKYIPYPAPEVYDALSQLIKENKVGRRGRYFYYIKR

Sul7s E33A = target: T13, Sul7s E33A (Sulfolobus islandicus Rey15A, UniProt F0NBY5 1-59, E33A); experiment: as above; conditions: protein: recombinant; tags: untagged; label: 5'-biotin
T13 sequence: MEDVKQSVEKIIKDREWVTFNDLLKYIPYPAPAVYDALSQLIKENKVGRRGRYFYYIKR

Sul7s W17A = target: T14, Sul7s W17A (Sulfolobus islandicus Rey15A, UniProt F0NBY5 1-59, W17A); experiment: as above; conditions: protein: recombinant; tags: untagged; label: 5'-biotin
T14 sequence: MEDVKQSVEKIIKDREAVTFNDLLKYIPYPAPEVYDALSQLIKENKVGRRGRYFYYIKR

Sul7s Y56A = target: T15, Sul7s Y56A (Sulfolobus islandicus Rey15A, UniProt F0NBY5 1-59, Y56A); experiment: as above; conditions: protein: recombinant; tags: untagged; label: 5'-biotin
T15 sequence: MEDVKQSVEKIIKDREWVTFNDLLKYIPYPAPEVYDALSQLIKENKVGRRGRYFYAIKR

For TTTTTTTTTTTTTTTTTTTTTTTTTTTTTT (ssDNA) [T30], the Kd (Sul7s [1]; label: 5'-biotin) was 1.19 ± 0.3 µM.

GTAGTCAGACACAGTAGTTC (ssDNA) [S20-F]: binds (Sul7s [2]).

TTTCTACCCTTTGGTGCTAATGCCCATACT (ssDNA) [S30 (S30-F)]: no binding (Sul7s R59A); no binding (Sul7s R52A); no binding (Sul7s R49A). For the same binder, the Kd (Sul7s D36A) was 88.3 µM, the Kd (Sul7s D3A) was 6.01 µM and the Kd (Sul7s [1]; label: 5'-biotin) was 5.62 ± 0.95 µM. For the same binder, the Kd (Sul7s T19G) was 14.1 µM, the Kd (Sul7s K13A) was 30.4 µM and the Kd (Sul7s R15A) was 4.67 µM. The Kd (Sul7s K43A) was 27.9 µM, the Kd (Sul7s K58A) was 26.9 µM and the Kd (Sul7s N21A) was 8.92 µM. For the same binder, the Kd (Sul7s E33A) was 1.21 µM, the Kd (Sul7s W17A) was 10.7 µM and the Kd (Sul7s Y56A) was 15.6 µM.

CTGGGGGCTGGGGGCTGGGGGCTGGGGGCT (ssDNA) [G-rich30] was tested, and the Kd (Sul7s [1]; label: 5'-biotin) was 17.5 ± 4.8 µM.

B1: D30 (dsDNA)
DNA 1: TTTCTACCCTTTGGTGCTAATGCCCATACT
DNA 2: AGTATGGGCATTAGCACCAAAGGGTAGAAA
B1 was tested, and the Kd (Sul7s [1]; label: 5'-biotin on strand 1, blunt) was 76.8 ± 16.9 µM.
